Source: a protein production outcome set (Wang et al. 2014)

Test: label from the status in PepcDB records
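Further: failed if final PepcDB status was selected cloned or expressed and not failed if soluble or beyond.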

Sequence	protein production
MQTKVINFNDKFSLFNQHWSPRVIAEMNDYQFKLVKVEGEFVWHEHADTDEVFIVMEGTLQIAFRDQNITLQAGEMYVIPKGVEHKPMAKEECKIMIIEPR	not failed
MLTDAHCRAAKAKDKLYRINDARGLYLEVKPNGVRAWRYRFKLCGKASWFALGDYPDLSLANAREKCDEARKLVRQGINPVQNRQLTKIKREMDASNTFETIAQEWLALKSWEPVTKSRRLGMLKRVVFPSIGKLPVRTITSAHVLDILNKTVKRGAPTVAAEAKRTMSGVFELAVATLRADTDPVWPVRKALPPNKTQHKAALTSGQVGNLLNAFDSHGGHFQTQMAFRLMWLTLTRANESVQARWDEFDLANGLWKIPKERMKARREHLLPLPRQAVSILTTMQPITGQSTYVFPNRDDRHKPMSDAAFRQALKKLGWATIYSPHGTRTTGSTRLNEMGYRSDAIEAQLAHAEPNSVRRAYNHAIYMVERAEMMQHWADKLDLWKKEASDAAI	failed
LFTHRPIHTHTVTFSGGGENSAMYASIGFYDDRGWTLADHVKRITANIKNSFYWNEDKIKATISAQGNLRNQNSPGTIPQRRNTVIGTFERDFDINPFSYALSTSRTLRPHNADGKREFYRNNWAPFNILNEYENNYLKTEVLDLKLQGELSYRLNDHIEVKGLAMVRHAVTKSSHFIAEASNVVQAFRANETPYVARENIYLLKNKDDPMQLPGVALTHGGIFNKTETSLRSYLGRLALDYNRQLSEHNIRAFGFTEIRYADRSMNPFQGYGIQYDRGNQVFSNPLIFEKLANEGDTYFSLTERYERGVTLSGSATYGYAEKYIFNGVFNYEGANTAGKYSRSRWLPTWNIGAKWNLDQEKFMRKHTTISRLALRTSYGLTAKMNEQAVNSTTVFKHVMVNRTLLKDRENALRILHLENRDLTWEKMYELNFGLELGLFGNRISATFDVYQRNSFDLIDLIRTSGVGGQYYKYANFGDMRTRGVELAIQTQNILTDKFSWSTTVT	failed
MTDIHHQPEQTDDELYRHFFSRGGSLRLLADIQGEDLESLYGYAKQLFDGGEIAAARNVYQLLSTLDHWNFDYLLALGLCHQRLGAHNEAVVCFGRAGLIKVDDPRAAFYAGISYRLDGNAEYASKAFKAAINWCGEQIDYQAIKASAVDMLALQQEEVPC	failed
MILEFKSEKKMINFSKSFFYPLPIGKIFVLSGDMGSGKTSFLKGLALNLGISYFTSPTYNIVNVYDFINFKFYHIDLYRVSSLEEFELVGGLEILMDLDSIIAIEWPQIALSIVPKDRLFSLTFKIVGSGRVVELNGLEHHHHHH	not failed
MAINLTPLIGFLPEFIISAIISGFLFQAITNDKTFVRPIIGGKKPEQKSILKKVSSRRKPVDMKEYERMKNKTRYQALLFNSNMHIISSSALTVSAWILLIYAMIGIGKSSIFMPTFGFKINFIVYALLVIIFSVAMISSFSQVVRLREIYRIIASVFAVLSVVIFFEIPAMKWLFYIFPKVIVSYIFIYFAGLFILFLCYSLWWKLAPKITFYVSFYSSILTYFAIVSLMIYNSIPKL	failed
MNNPITAVWEITMGCNMRCKHCGSSCENALEGELTTEEALKLCDELGELGFKWITLSGGEPTTRKDWHLIAKRLNENGIIPNMITNGWLMNEEIADKAVEAGINTVAISVDGLEETHDFIRKKGSFQRIMRAFDILRTRNIFYSAITTINNINIKELPRLRDILIEKGVRGWQLQLGLPMGNMAKNNELVAQPYHIDEVIEFSYKTVKEGYNIDVQLADCIGYFNLKEIEVRKNSYGGGRDGYNWTGCGAGKYSLGILHNGDILGCTSVRDRSFIEGNIRQTPIKEIWMNPDSFSWNRKMTKDKLSGLCKKCYFGERCLGGCSNTRLTMEGSVYSENRYCSYNVAISTAREQLDRIEDVDVMLSKAKKFADNGNFQLAEILLSRAIEKGCRDIGVFEFYGYISFMLGNYLDAKKANEEALKINPDSAYANKGMGLSLGRLGELEKGIEYLRKAIALSDENFTDPYYDLAVLLYENGRKEEALEVLEEGRKKYKSFIDTSKDLYDILTNAS	failed
MDFPTISRSPSGPPAMDLEGPRDILVPSEDLTPDSQWDPMPGGPGSLSRMELDESSLQELVQQFEALPGDLVGPSPGGAPCPLHIATGHGLASQEIADAHGLLSAEAGRDDLLGLLHCEECPPSQTGPEEPLEPAPRLLQPPEDPDEDSDSPEWVEGASAEQEGSRSSSSSPEPWLETVPLVTPEEPPAGAQSPETLASYPAPQEVPGPCDHEDLLDGVIFGARYLGSTQLVSERNPPTSTRMAQAREAMDRVKAPDGETQPMTEVDLFVSTKRIKVLTADSQEAMMDHALHTISYTADIGCVLVLMARRRLARRPAPQDHGRRLYKMLCHVFYAEDAQLIAQAIGQAFAAAYSQFLRESGIDPSQVGVHPSPGACHLHNGDLDHFSNSDNCREVHLEKRRGEGLGVALVESGWGSLLPTAVIANLLHGGPAERSGALSIGDRLTAINGTSLVGLPLAACQAAVRETKSQTSVTLSIVHCPPVTTAIIHRPHAREQLGFCVEDGIICSLLRGGIAERGGIRVGHRIIEINGQSVVATPHARIIELLTEAYGEVHIKTMPAATYRLLTGQEQPVYL	not failed
MIEVLSVITSATVQDLGRWGYQRYGVPVSGVMDEVSARIANYLVGNPDNTPLIEFTAGGISIKFHTSAVFAVTGDATLYLNDTQLEPWESYWAKRGDVLTVRLSKGMYGYIAFSGGIECRKILGSCSTYLRAKFGGLLKPGDKLKLGYSLLTGKAGKRLPEELRPRFDKTVRVILGPNIEHFTPEGMRTFLTSEYTVTPESDRMGYRLEGPRIEHSEKGADIITEPIPRGAIQVPANGKPIIMLADAQTTGGYAKIATVIRVDIPMVVQTRPGEKLRFKAVSVNEAVQELRKRERI	not failed
MTASLEIRPFQETDLDFVRQLARQEDFAPGIGDIAIYANTANQGVWLAWQGDMPVGCIAAVKYNLDYGFMGLFVVHPDHRGGGVGRQLWDHALALLADVTCIGLEAAPSMVEFYQRQGFRKDSITTRRQHLRLEESSQHPTRRLLHRNDITIVPLKAISLDAVQAYDERHEISPRPHFLQQWLNHQAGDVFVAMDGSHQCHGYVRIRPCLLPIGQGWRIGPLLAEEPGIASLLLSNAMDRHKGIILIDTPGHNRSARTVAGAKGFRRMGATHRMYKGDLDNGHDQNIYGLACLELG	failed
MDLTISNELTGEIYGPIEVSEDMALTDLIALLQADCGFDKTKHDLYYNMDILDSNRTQSLKELGLKTDDLLLIRGKISNSIQTDAATLSDEAFIEQFRQELLNNQMLRSQLILQIPGLNDLVNDPLLFRERLGPLILQRRYGGYNTAMNPFGIPQDEYTRLMANPDDPDNKKRIAELLDQQAIDEQLRNAIEYTPEMFTQVPMLYINIEINNYPVKAFVDTGAQTTIMSTRLAKKTGLSRMIDKRFIGEARGVGTGKIIGRIHQAQVKIETQYIPCSFTVLDTDIDVLIGLDMLKRHLACVDLKENVLRIAEVETSFLSEAEIPKSFQEGLPAPTSVTTSSDKPLTPTKTSSTLPPQPGAVPALAPRTGMGPTPTGRSTAGATTATGRTFPEQTIKQLMDLGFPRDAVVKALKQTNGNAEFAASLLFQ	failed
MGMEHKTYEADLFVWCQQQADGLRALSRSRRDLPDDLDLEHIAEEIEDMGRSELREATSLVRQICVRVIMAMSAPEAPDRARWRSEVVSWHNLLLDTITPGMIDRIDIGVIWRRAVSEAKAALIEINVAPQAGLSFQAPLPADHFLDEDFDYDATVARLGPTA	not failed
MGVVERAIAPSVLAALADTPVVVVNGARQVGKTTLVARLDYPGSSEVVSLDDVANRDAARDDPRAFVSRPVDTLVIDEAQLEPGLFRAIKAEVDRDRRPGRFLLTGSARLLSAPDMADALVGRVEIIELWPFSQGERAGIADGFVDALFTAPRELIHGSDMRRADLVDRIATGGFPDIVARSPSRRRAWFDNYLTTATQSVIREISPIERLAEMPRVLRLCAARTGAELNVSALANDLSIPARTTAGYLALLEAAFLIHRVPAWSTNLSRKVIRRPKLVVSDSGLACHLLGVTGATLDRPGRPLGPLLETFVANEIRKQLTWSTERPSLWHFRDRGGAEVDLVLEHPDGRVCGIEVKATSTPRAEDLRGLRYLAERLDDRFQFGVLLTAAPEATPFGPTLAALPVSTLWAG	failed
MNADYFFNQGLSDNLSREYQRTVVGGTKPTNRRIDAETYCKRGITFSRELKDYQGAIAFFNLAVEINPNYAQAYYHRANARYCLADFTAAIADYDQALQINPTFAEYYYCRGNAYLAQGDYDQAIANYISTIEFDPLLASNINEDIANAYYYRGLNNNDQGNYQEAIIDLQQALQWHPYFAAAYSIRGNIYYKLGEYRQAIADHERAVQLDPNLAEAYQNRGNAHYALGAYQKAIADYNRTLEINPHQVGAYYNRGLISFYLHEYQQAFADFNQVLNFNPNDAQAYYQRGLIYEAWQDYQSALADYNQSLQLNSELAVVYGVRANIYRHLGDYPSALADGNRLLELQPNFAAGYCDRATSRRCLGDYRGAIADYNQALQINPNIAEAYYGRAIAHEALRDFIGAIADYTQSIRISPDFAPAYCNRGNARRQLGDTKGAVTDYNQALTINPQLSEAYYNRGSLHYDQQNYRSAIADYTQALELQPESARYYSDRAHARYALQDYQGAVADYTQSIAINPGYAEDWYNRGRSHLLLGYLEEALADLNQALKFHPHWASAYLLRADILRNRGDYQAAIADFQKSADLYSQEGNTQNYQQILEIIAGLK	failed
KVKELNLHELCAVCLEDFKPRDELGICPCKHAFHRKCLIKWLEVRKVCPLCNMPVLQLAQL	not failed
MSPIALARLLTLAAVWGASFLFMRIIAPELGTVPTAFFRVSIACLGLIVILAAARVRWNFQGKLGACLVLGMINSGIPATFYSVAAQVLPAGYSAIFNATTPLMGVLVGVLFFREPMTLAKLCGIFLGLFGVGILSGAGPVALDMALLQGALACLAATTCYGFAGFLARRWISGLDSRLSALGSMLGATLMLTPLFGWSALTQPPASWGGWEVWLSLLGLGLLCTAFAYILYFRLLEEIGPVKASTVTFLIPVFGVLWGAWLLNEPLSMAHLYGGLLIGLALWLVLRPARS	failed
MLNKFKKIVGVSVLVGCLGVLQAKNSLFVLPYEQKDALNSLVSGISNARESVKIAIYSFTHRDIARAIKSVASRGIKVQIIYDYESNHHNKQSTIGYLDKYPNTKVCLLKGLKAKNGNYYGIMHQKVAIIDDKIVFLGSANWSKNAFENNYEVLLKTDDTETILKAKSYYQKMLGSCVGF	failed
MTTDTGELVRTNQGTSSEVSSETGTAVQTLSVLYGSQTGNAEFLASKIVDKANGQGYAAELMSLDMLTPQEAARKDRLLIVTATHDNGHMPDNAQPFWDQLQSAGSDLFKDVPFAVLAIGDSMYEDFCKAGSDLDERLGKLGGKRILDRLDCDVDYDLTSGKWIRGMLETFKTVVPKKRDNNPEDSTVPGANPAEQPKGTRREPDTATVVEARLLSAPESEKEVWHYELEVSGDSRNYRPGDSLAVIPTNNIELVEDLLGFLGLAGSEVFGEDGKTVRETLQNDYELRLPHLGIVAWLVENLAPDHPVRNLVESGDRNALEDWLWGRDMLDVLQETRTTDVDPGEFLSMLRPLQHRSYSIASSPLADGDRVHLTVSTVQYETAGRRHSGACSGFLQSAAQTKTTIKVFPLPAHEFHLPHDNSADVIMVGPGVGVAPFRGFLRDREVSQARGRNWLFFGDRHEKPSWLYQEEMEELQSNGVLNRLSVAFSRDQQGKVYVQDRIREEGDGIFAWLSGGASVYVCGGKQIAPDIDEALLAVLRSHGAMTPEKAHDYLQSLKSEGRYVKDVY	failed
MSQAIPSSRVGVKINEWYKMIRQFSVPDAEILKAEVEQDIQQMEEDQDLLIYYSLMCFRHQLMLDYLEPGKTYGNRPTVTELLETIETPQKKLTGLLKYYSLFFRGMYEFDQKEYVEAIGYYREAEKELPFVSDDIEKAEFHFKVAEAYYHMKQTHVSMYHILQALDIYQNHPLYSIRTIQSLFVIAGNYDDFKHYDKALPHLEAALELAMDIQNDRFIAISLLNIANSYDRSGDDQMAVEHFQKAAKVSREKVPDLLPKVLFGLSWTLCKAGQTQKAFQFIEEGLDHITARSHKFYKELFLFLQAVYKETVDERKIHDLLSYFEKKNLHAYIEACARSAAAVFESSCHFEQAAAFYRKVLKAQEDILKGRVFICLLRKKVMMCLAVTLVFGSMSFPTLTNSGGFKESTDRNTTYIDHSPYKLSDQKKALS	failed
